Laboratory results published in US20140161800A1 (published 2014).

Key:
[1] = target: T1, prostate-specific membrane antigen (PSMA) (human, UniProt Q04609 1-750); test: FACS binding; LNCaP cells
[2] = target: T1, prostate-specific membrane antigen …; test: FACS binding; C4-2 cells; apparent EC50

T1 sequence (Q04609 whole entry): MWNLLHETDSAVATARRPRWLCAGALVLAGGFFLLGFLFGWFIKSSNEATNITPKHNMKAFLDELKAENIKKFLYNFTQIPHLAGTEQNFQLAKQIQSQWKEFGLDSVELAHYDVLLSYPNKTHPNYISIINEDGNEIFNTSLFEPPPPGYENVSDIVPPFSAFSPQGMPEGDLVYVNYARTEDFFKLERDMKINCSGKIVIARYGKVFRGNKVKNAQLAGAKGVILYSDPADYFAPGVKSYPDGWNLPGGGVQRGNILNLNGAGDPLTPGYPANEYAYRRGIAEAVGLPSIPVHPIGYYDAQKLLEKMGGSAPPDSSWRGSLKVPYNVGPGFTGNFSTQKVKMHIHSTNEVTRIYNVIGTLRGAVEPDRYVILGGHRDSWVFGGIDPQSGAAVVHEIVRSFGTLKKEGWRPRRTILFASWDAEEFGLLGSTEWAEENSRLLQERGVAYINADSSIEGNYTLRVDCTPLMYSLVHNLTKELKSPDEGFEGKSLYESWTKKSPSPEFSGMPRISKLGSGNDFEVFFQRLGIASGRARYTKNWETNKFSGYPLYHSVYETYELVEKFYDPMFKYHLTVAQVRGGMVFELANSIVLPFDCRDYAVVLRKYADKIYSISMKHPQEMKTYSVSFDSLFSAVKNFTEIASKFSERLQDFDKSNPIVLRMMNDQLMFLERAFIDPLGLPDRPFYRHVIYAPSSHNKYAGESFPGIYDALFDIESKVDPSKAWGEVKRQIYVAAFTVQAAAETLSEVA

Row | Binder | EC50 [1] | EC50 [2]
1 | TSC092 chimeric SMIP (murine 107-1A4 VH-VL scFv-human Fc) (Fc fusion) EIQLQQSGPELVKPGASVKMSCKASGYTFTDYYMHWVKQNNGESLEWIGYFNPYNDYTRYNQNFNGKATLTVDKSSSTAYMQLNSLTSEDSAFYYCARSDGYYDAMDYWGQGTSVTVSSGGGGSGGGGSSGGGGSDVQITQSPSYLAASPGETITINCRASKSISKYLAWYQEKPGKANKLLIHSGSTLQSGIPSRFSGSGSGTDFTLTISSLEPEDFAMYYCQQHIEYPWTFGGGTKLEIKRASSEPKSSDKTHTCPPCPAPEAAGAPSVFLFPPKPKDTLMISRTPEVTCVVVDVSHEDPEVKFNWYVDGVEVHNAKTKPREEQYNSTYRVVSVLTVLHQDWLNGKAYACAVSNKALPAPIEKTISKAKGQPREPQVYTLPPSRDELTKNQVSLTCLVKGFYPSDIAVEWESNGQPENNYKTTPPVLDSDGSFFLYSKLTVDKSRWQQGNVFSCSVMHEALHNHYTQKSLSLSPGK | 4 nM | 
2 | 107-1A4 murine monoclonal antibody (antibody, V domains shown) VH: EIQLQQSGPELVKPGASVKMSCKASGYTFTDYYMHWVKQNNGESLEWIGYFNPYNDYTRYNQNFNGKATLTVDKSSSTAYMQLNSLTSEDSAFYYCARSDGYYDAMDYWGQGTSVTVSS VL: DVQITQSPSYLAASPGETITINCRASKSISKYLAWYQEKPGKANKLLIHSGSTLQSGIPSRFSGSGSGTDFTLTISSLEPEDFAMYYCQQHIEYPWTFGGGTKLEIKR | 5.4 nM | 
3 | TSC189 humanized SMIP (107-1A4 VL-VH#2 scFv-Fc) (Fc fusion) DIQMTQSPSAMSASVGDRVTITCRASKSISKYLAWFQQKPGKVPKLRIHSGSTLQSGVPSRFSGSGSGTEFTLTISSLQPEDFATYYCQQHIEYPWTFGQGTKVEIKRGGGGSGGGGSGGGGSQVQLVQSGAEVKKPGASVKVSCKASGYTFTDYYMHWVRQAPGQGLEWMGYFNPYNDYTRYAQKFQGRVTMTRDTSISTAYMELSSLRSDDTAVYYCARSDGYYDAMDYWGQGTTVTVSSSEPKSSDKTHTCPPCPAPEAAGAPSVFLFPPKPKDTLMISRTPEVTCVVVDVSHEDPEVKFNWYVDGVEVHNAKTKPREEQYNSTYRVVSVLTVLHQDWLNGKAYACAVSNKALPAPIEKTISKAKGQPREPQVYTLPPSRDELTKNQVSLTCLVKGFYPSDIAVEWESNGQPENNYKTTPPVLDSDGSFFLYSKLTVDKSRWQQGNVFSCSVMHEALHNHYTQKSLSLSPGK |  | 2.1 nM
4 | TSC188 humanized SMIP (107-1A4 VL-VH#1 scFv-Fc) (Fc fusion) DIQMTQSPSAMSASVGDRVTITCRASKSISKYLAWFQQKPGKVPKLRIHSGSTLQSGVPSRFSGSGSGTEFTLTISSLQPEDFATYYCQQHIEYPWTFGQGTKVEIKRGGGGSGGGGSGGGGSEVQLVQSGAEVKKPGATVKISCKASGYTFTDYYMHWVQQAPGKGLEWMGYFNPYNDYTRYAEKFQGRVTITADTSTDTAYMELSSLRSEDTAVYYCARSDGYYDAMDYWGQGTTVTVSSSEPKSSDKTHTCPPCPAPEAAGAPSVFLFPPKPKDTLMISRTPEVTCVVVDVSHEDPEVKFNWYVDGVEVHNAKTKPREEQYNSTYRVVSVLTVLHQDWLNGKAYACAVSNKALPAPIEKTISKAKGQPREPQVYTLPPSRDELTKNQVSLTCLVKGFYPSDIAVEWESNGQPENNYKTTPPVLDSDGSFFLYSKLTVDKSRWQQGNVFSCSVMHEALHNHYTQKSLSLSPGK |  | 3.2 nM
5 | TSC085 chimeric SMIP (murine 107-1A4 VL-VH scFv-human Fc) (Fc fusion) DVQITQSPSYLAASPGETITINCRASKSISKYLAWYQEKPGKANKLLIHSGSTLQSGIPSRFSGSGSGTDFTLTISSLEPEDFAMYYCQQHIEYPWTFGGGTKLEIKRAGGGGSGGGGSSGGGGSEIQLQQSGPELVKPGASVKMSCKASGYTFTDYYMHWVKQNNGESLEWIGYFNPYNDYTRYNQNFNGKATLTVDKSSSTAYMQLNSLTSEDSAFYYCARSDGYYDAMDYWGQGTSVTVSSSEPKSSDKTHTCPPCPAPEAAGAPSVFLFPPKPKDTLMISRTPEVTCVVVDVSHEDPEVKFNWYVDGVEVHNAKTKPREEQYNSTYRVVSVLTVLHQDWLNGKAYACAVSNKALPAPIEKTISKAKGQPREPQVYTLPPSRDELTKNQVSLTCLVKGFYPSDIAVEWESNGQPENNYKTTPPVLDSDGSFFLYSKLTVDKSRWQQGNVFSCSVMHEALHNHYTQKSLSLSPGK | 4.9 nM | 
